Data on 2 substances can be found in PMC10933150.

Assay [1] addresses α7-mCherry (human α7 nicotinic acetylcholine receptor subunit with mCherry in the M3-M4 cytoplasmic loop) (human) (UniProt P36544). The assay can be described thus: FRET or BRET; acceptor photobleaching FRET (apFRET) by confocal microscopy in live HEK293 cells 2 days after transfection; eGFP donor, mCherry acceptor; region of interest in the ER; in DMEM at 37 °C and 5% CO2.
For assay [2] the target is unchanged.
For assay [3] the target is unchanged. The source holds these as a separate data set.

Chain of UniProt P36544 (P36544 23-502): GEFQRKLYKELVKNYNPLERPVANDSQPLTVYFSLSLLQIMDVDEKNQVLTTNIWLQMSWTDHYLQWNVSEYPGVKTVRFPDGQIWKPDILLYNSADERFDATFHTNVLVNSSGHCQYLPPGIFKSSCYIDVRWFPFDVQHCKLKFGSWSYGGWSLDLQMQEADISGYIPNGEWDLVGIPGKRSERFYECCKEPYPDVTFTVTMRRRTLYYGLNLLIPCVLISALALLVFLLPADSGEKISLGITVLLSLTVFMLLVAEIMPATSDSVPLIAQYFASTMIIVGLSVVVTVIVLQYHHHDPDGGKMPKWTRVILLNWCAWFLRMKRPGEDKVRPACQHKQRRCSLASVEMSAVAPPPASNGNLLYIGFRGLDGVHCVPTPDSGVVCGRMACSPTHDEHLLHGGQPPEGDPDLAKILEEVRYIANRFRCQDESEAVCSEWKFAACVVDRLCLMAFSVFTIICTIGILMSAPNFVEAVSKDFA

In the case of “eGFP-RIC3WT (wild-type RIC3 with eGFP fused to the N-terminus) (from UniProt Q7Z5B4-5 29-368) (natural protein)”, the FRET efficiency (EF) in assay [1] worked out at 7.24%.
The substance “eGFP-RIC3G88R (RIC3 variant G88R with eGFP fused to the N-terminus) (from UniProt Q7Z5B4-5 29-368) (natural protein)” registered an FRET efficiency (EF) in assay [1] of 10.7%. This substance also registered a ^125I-α-bungarotoxin binding to intact HEK293 cells (cell surface α7), decrease with eGFP-RIC3G88R against eGFP-RIC3WT, α7:RIC3 cDNA 1:1 or 5:1 in assay [2] of 50%. Moreover, in assay [3], the fold decrease in amplitude of maximal currents elicited by 1 mM acetylcholine in Xenopus oocytes (level of functional α7 nAChR); untagged α7 and RIC3G88R, tagged constructs gave the same pattern (data not shown) was determined as 1.5 fold.
